Consider three molecules from article PMC5940780, “Functional insights into the interplay between DNA interaction and metal coordination in ferric uptake regulators” (Scientific Reports, 2018).

The target of series [1] is T1, CjFur K17E K17E (Campylobacter jejuni NCTC11168?) (UniProt P0C631).
T1 sequence: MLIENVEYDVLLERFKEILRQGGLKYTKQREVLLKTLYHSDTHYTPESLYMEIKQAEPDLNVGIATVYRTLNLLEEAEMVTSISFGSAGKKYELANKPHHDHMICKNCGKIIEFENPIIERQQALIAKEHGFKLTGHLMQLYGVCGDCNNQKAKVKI
Description: EMSA. Particulars: 20 mM Bis-Tris borate pH 7.4, 50 mM KCl, 3 mM MgCl2, 5% glycerol, 0.1% Triton X-100, 0.1 ug poly dI-dC, 2 nM DNA, 45 min on ice; holo: +50 uM MnCl2 (100 uM in …). On the technique in general: Mobility shift assays separate free from complexed probe on a gel.

Series [2] deals with T2, CjFur K25E K25E (Campylobacter jejuni NCTC11168?) (UniProt P0C631).
T2 sequence: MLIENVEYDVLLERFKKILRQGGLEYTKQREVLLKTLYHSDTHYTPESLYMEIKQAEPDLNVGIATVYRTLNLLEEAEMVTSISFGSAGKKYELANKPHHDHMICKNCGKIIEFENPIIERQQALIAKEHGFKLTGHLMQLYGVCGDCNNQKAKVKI
Description: EMSA. Particulars: 20 mM Bis-Tris borate pH 7.4, 50 mM KCl, 3 mM MgCl2, 5% glycerol, 0.1% Triton X-100, 0.1 ug poly dI-dC, 2 nM DNA, 45 min on ice; holo: +50 uM MnCl2 (100 uM in …).

The target of series [3] is T3, CjFur K28E K28E (Campylobacter jejuni NCTC11168?) (UniProt P0C631).
T3 sequence: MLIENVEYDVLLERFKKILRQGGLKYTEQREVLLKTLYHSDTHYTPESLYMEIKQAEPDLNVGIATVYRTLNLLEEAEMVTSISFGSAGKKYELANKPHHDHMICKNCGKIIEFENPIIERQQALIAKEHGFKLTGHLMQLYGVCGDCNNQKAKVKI
The series can be described thus: EMSA. Particulars: 20 mM Bis-Tris borate pH 7.4, 50 mM KCl, 3 mM MgCl2, 5% glycerol, 0.1% Triton X-100, 0.1 ug poly dI-dC, 2 nM DNA, 45 min on ice; holo: +50 uM MnCl2 (100 uM in …).

In series [4] the target is T4, CjFur R20E R20E (Campylobacter jejuni NCTC11168?) (UniProt P0C631).
T4 sequence: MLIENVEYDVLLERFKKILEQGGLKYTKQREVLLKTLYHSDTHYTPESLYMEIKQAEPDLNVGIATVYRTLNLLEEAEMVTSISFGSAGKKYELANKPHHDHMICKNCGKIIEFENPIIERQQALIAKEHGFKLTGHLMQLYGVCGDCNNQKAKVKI
Description: EMSA. Particulars: 20 mM Bis-Tris borate pH 7.4, 50 mM KCl, 3 mM MgCl2, 5% glycerol, 0.1% Triton X-100, 0.1 ug poly dI-dC, 2 nM DNA, 45 min on ice; holo: +50 uM MnCl2 (100 uM in …).

Series [5] has as its target T5, CjFur R30E R30E (Campylobacter jejuni NCTC11168?) (UniProt P0C631).
T5 sequence: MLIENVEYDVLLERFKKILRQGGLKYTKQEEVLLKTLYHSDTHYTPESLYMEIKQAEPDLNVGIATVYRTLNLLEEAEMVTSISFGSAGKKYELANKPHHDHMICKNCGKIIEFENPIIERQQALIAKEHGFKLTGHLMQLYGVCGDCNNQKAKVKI
Description: EMSA. Particulars: 20 mM Bis-Tris borate pH 7.4, 50 mM KCl, 3 mM MgCl2, 5% glycerol, 0.1% Triton X-100, 0.1 ug poly dI-dC, 2 nM DNA, 45 min on ice; holo: +50 uM MnCl2 (100 uM in …).

Series [6] has as its target T6, CjFur R69E R69E (Campylobacter jejuni NCTC11168?) (UniProt P0C631).
T6 sequence: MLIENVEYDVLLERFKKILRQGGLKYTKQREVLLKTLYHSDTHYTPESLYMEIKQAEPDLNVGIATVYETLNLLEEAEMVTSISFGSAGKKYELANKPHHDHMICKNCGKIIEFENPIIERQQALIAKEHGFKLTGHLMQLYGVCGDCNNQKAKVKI
Description: EMSA. Particulars: 20 mM Bis-Tris borate pH 7.4, 50 mM KCl, 3 mM MgCl2, 5% glycerol, 0.1% Triton X-100, 0.1 ug poly dI-dC, 2 nM DNA, 45 min on ice; holo: +50 uM MnCl2 (100 uM in …).

The target in series [7] is T7, CjFur WT (Campylobacter jejuni NCTC11168?) (UniProt P0C631).
T7 sequence: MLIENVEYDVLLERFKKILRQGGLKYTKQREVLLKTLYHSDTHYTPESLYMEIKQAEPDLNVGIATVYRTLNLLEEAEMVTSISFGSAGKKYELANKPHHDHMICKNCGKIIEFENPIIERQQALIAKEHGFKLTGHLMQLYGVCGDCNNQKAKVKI
The series can be described thus: EMSA. Particulars: 20 mM Bis-Tris borate pH 7.4, 50 mM KCl, 3 mM MgCl2, 5% glycerol, 0.1% Triton X-100, 0.1 ug poly dI-dC, 2 nM DNA, 45 min on ice; holo: +50 uM MnCl2 (100 uM in …).

Series [8] deals with T8, CjFur Y68A Y68A (Campylobacter jejuni NCTC11168?) (UniProt P0C631).
T8 sequence: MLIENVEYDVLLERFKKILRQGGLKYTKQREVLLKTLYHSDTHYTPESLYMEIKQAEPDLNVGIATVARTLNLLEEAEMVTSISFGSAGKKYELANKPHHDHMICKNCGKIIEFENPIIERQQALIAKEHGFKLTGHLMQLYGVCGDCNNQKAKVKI
The series can be described thus: EMSA. Particulars: 20 mM Bis-Tris borate pH 7.4, 50 mM KCl, 3 mM MgCl2, 5% glycerol, 0.1% Triton X-100, 0.1 ug poly dI-dC, 2 nM DNA, 45 min on ice; holo: +50 uM MnCl2 (100 uM in …).

Series [9] has as its target T9, CjFurΔS2 H43A;H102A (Campylobacter jejuni NCTC11168?) (UniProt P0C631).
T9 sequence: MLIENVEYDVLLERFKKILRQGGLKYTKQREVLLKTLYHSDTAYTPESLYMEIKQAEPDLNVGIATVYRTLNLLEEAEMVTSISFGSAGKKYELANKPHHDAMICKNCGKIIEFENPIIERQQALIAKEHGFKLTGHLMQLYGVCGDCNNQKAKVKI
Description: EMSA. Particulars: 20 mM Bis-Tris borate pH 7.4, 50 mM KCl, 3 mM MgCl2, 5% glycerol, 0.1% Triton X-100, 0.1 ug poly dI-dC, 2 nM DNA, 45 min on ice; holo: +50 uM MnCl2 (100 uM in …).

Series [10] addresses T10, CjFurΔS3 H99A;H137A (Campylobacter jejuni NCTC11168?) (UniProt P0C631).
T10 sequence: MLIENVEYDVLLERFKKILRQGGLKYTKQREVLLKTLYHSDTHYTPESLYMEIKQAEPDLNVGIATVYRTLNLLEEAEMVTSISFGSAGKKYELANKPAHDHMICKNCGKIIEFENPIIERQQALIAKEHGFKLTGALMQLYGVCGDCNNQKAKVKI
Description: EMSA. Particulars: 20 mM Bis-Tris borate pH 7.4, 50 mM KCl, 3 mM MgCl2, 5% glycerol, 0.1% Triton X-100, 0.1 ug poly dI-dC, 2 nM DNA, 45 min on ice; holo: +50 uM MnCl2 (100 uM in …).

For the next series, the target named is CjFur Y68A (UniProt P0C631 1-157, Y68A). Description: EMSA; holo, 50 uM MnCl2; 0-100 nM protein; 20 mM Bis-Tris borate pH 7.4, 50 mM KCl, 3 mM MgCl2, 5% glycerol, 0.1% Triton X-100, 0.1 ug poly dI-dC, 2 nM DNA, 45 min on ice; holo: +50 uM MnCl2 (100 uM in gel); gel at 4 C. Particulars: protein: recombinant; tags: N-terminal Strep tag, TEV-cleaved; chain copies: 2; label: 5' Cy5 on both strands; blunt.

For a further series, the target named is CjFur R69E (UniProt P0C631 1-157, R69E). The series is described as above. Particulars: protein: recombinant; tags: N-terminal Strep tag, TEV-cleaved; chain copies: 2; label: 5' Cy5 on both strands; blunt.
Another series has as its target CjFur K25E (UniProt P0C631 1-157, K25E). Described as above. Particulars: protein: recombinant; tags: N-terminal Strep tag, TEV-cleaved; chain copies: 2; label: 5' Cy5 on both strands; blunt.
A further series concerns the target CjFur R30E (UniProt P0C631 1-157, R30E). The description is as above. Particulars: protein: recombinant; tags: N-terminal Strep tag, TEV-cleaved; chain copies: 2; label: 5' Cy5 on both strands; blunt.
A further series addresses T11, CjFur WT (UniProt P0C631 1-157).
T11 sequence: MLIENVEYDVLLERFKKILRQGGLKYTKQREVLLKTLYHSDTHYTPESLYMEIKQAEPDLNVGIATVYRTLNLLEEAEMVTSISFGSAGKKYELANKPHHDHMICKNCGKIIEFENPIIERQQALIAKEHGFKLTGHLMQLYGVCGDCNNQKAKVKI
Description: EMSA; holo, 50 uM MnCl2; 0-100 nM protein; two bound species; 20 mM Bis-Tris borate pH 7.4, 50 mM KCl, 3 mM MgCl2, 5% glycerol, 0.1% Triton X-100, 0.1 ug poly dI-dC, 2 nM DNA, 45 min on ice; holo: +50 uM MnCl2 (100 uM in gel); gel at 4 C. Particulars: protein: recombinant; tags: N-terminal Strep tag, TEV-cleaved; chain copies: 2; label: 5' Cy5 on both strands; blunt.

Series [11] deals with the molecule itself. The series can be described thus: crystal structure; CjFur (7.5 ug/uL) crystallised in 0.1 M Bis-Tris pH 5.5, 0.25 M MgFormate, 25% PEG3350; molecular replacement; 1.8 A; form with zinc in S1 only (CjFurZn).

Consider “GGGAAAAGAGCCAAATTTAGGTGTTATCATCAATGCTGCTAATGAAGTTGGTGTTTATAATTTTTTAGAAAATAAAAGTGGATTTTTAGACATTGCTAAATGCATTTTTAAAGCCCTTGATCATTTTGGAGTACCTAAAATTTCAAGCATAGAAGAAGTTTTTGAGTATGATTTTAAAACAAGAGAGTATTTAAGGAGTTAAA (double strand) [cj1345c promoter region]”, for which the binding result in series [1] was “binds more weakly”; in [2], “no binding”; in [3], “no binding”; in [4], “no binding”; in [5] it was “binds more weakly”; in series [6] it was “no binding”. Moreover, the binding result is on record as “binds” in [7], “binds more weakly” in [8], “binds more weakly” in series [9] and “binds more weakly” in series [10].

B1: katA promoter 60 bp (dsDNA)
DNA 1: ACTGAATAATTGCATTTTATTGATAATAAATTTCAAAATAAATTTAGTTTTTTTATATTA
DNA 2: TAATATAAAAAAACTAAATTTATTTTGAAATTTATTATCAATAAAATGCAATTATTCAGT
As to B1, the binding result in the series with CjFur Y68A is recorded as “no binding”; with CjFur R69E, “no binding”; with CjFur K25E, “no binding”; with CjFur R30E, “no binding”; with CjFur WT, “binds”.

B2: Campylobacter jejuni Fur (ferric uptake regulator), wild type (natural protein)
chain: MLIENVEYDVLLERFKKILRQGGLKYTKQREVLLKTLYHSDTHYTPESLYMEIKQAEPDLNVGIATVYRTLNLLEEAEMVTSISFGSAGKKYELANKPHHDHMICKNCGKIIEFENPIIERQQALIAKEHGFKLTGHLMQLYGVCGDCNNQKAKVKI
notes: Ferric uptake regulator Fur of Campylobacter jejuni; wild type; in the crystal one zinc per protomer in the S1 site (C105, C108, C145, C148), S2 and S3 sites empty; Crystallised form is called CjFurZn (zinc only in S1); the earlier structure 4ETS of the same protein is called CjFurZn2 (zinc in S1 and S3); also called CjFur; CjFurZn; source: E. coli Rosetta, purified (Strep-TACTIN beads, TEV …)
The term stoichiometry N denotes a count of units in the complex or per binding partner. Regarding B2, the “stoichiometry N” value in series [11] came to 2.
